Assay results as given in the supplement of paper PMC9170038.

Tested on: MS2 coat protein
Assay: apparent KD of MS2 coat protein; designed switch direction (-1 OFF switch, 1 ON switch): -1; higher = weaker reporter binding
Outline: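 The apparent KD reported per design is the median over clusters of curve fits to normalised cluster fluorescence. The RNA switches were transcribed on Illumina chips by stalled E. coli RNA polymerase. SNAP-549-labelled MS2 coat protein was titrated from 0.7 or 1.5 nM, doubling up to 3 µM, in Tris-HCl pH 7.5 buffer containing KCl, MgCl2, BSA, DTT, tRNA and Tween-20, with no input, 200 uM small-molecule ligand, or an oligonucleotide input.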

[1] = Eterna round: R95, input ligand: microRNA oligo, concentration not stated
[2] = input ligand: microRNA oligo, concentration not stated
[3] = Eterna round: R95, input ligand: FMN 200 uM
[4] = Eterna round: R95, input ligand: none

Row | Sequence | apparent KD of MS2 coat protein [1] [nM] | apparent KD of MS2 coat protein (input ligand: FMN 200 uM) [nM] | apparent KD of MS2 coat protein [2] [nM] | apparent KD of MS2 coat protein (input ligand: none) [nM] | apparent KD of MS2 coat protein [3] [nM] | apparent KD of MS2 coat protein [4] [nM]
1 | AUUGAUGUUGAGGAUAUGCUUUUAUUUAUAAUAGCAGAAGGCGAUACAUGAGGAUCACCCAUGUUCAUGGUAGU [JR_E6_Sub095] (puzzle: Exclusion 6) | 50.4 |  |  |  |  | 
2 | UCGGUGCGAGGAUAUACGUUUGCGCGUUUUCGUUUGCGCGUACAUGAGGAUCACCCAUGUAGAAGGCGCGCGGC [Apr-15 SS2-12] (puzzle: Exclusion 2) | 11.8 |  |  |  |  | 
3 | AGCCAAGCAGGAUAUGCCCGGGAUAACAUGAGGAUCACCCAUGUGACCGAUUGAUGUCCUGCAGAAGGGCUUGGGA [Erxesoan] (Eterna round: R96, puzzle: Exclusion 5) |  | 82.4 | 11.4 | 16.9 |  | 
4 | UUUUAACAUGAGGAUCACCCAUGUGAGGAUAUCGAAAUUUAUAUUAAUAUUAAUAAAUCGAGAAGGCACAUUUU [JMF 20] (puzzle: Exclusion 1) | 109 |  |  |  |  | 
5 | UAUAAUCGAGGAUAUACAUGAGGAUCACCCAUGUGUUGCCGCGUGACAUGAUCGUCAGGUAGAAGGCGAUUAUA [Exclusion 3 - Mod of Jieux's Gilly Gone Silly 23 v.10] (puzzle: Exclusion 3) | 147 |  |  |  |  | 
6 | AAUAAUAAGGAGGAUAUCGUAUGCGAAAGCAUACGAGAAGGCCUAACAUGAGGAUCACCCAUGUUCCUCAAUAA [Mat - Exclusion 6 - Eli Mod - D55] (puzzle: Exclusion 6) | 254 |  |  |  | 659 | 259
7 | AUGGGUCCUCACGGAGCUACAUGAGGAUCACCCAUGUGGAUUGAGGAUAUCGACAGCCGACGGCUCGAGAAGGCAGUUUACUGU [Ex NG3 #96] (Eterna round: R96, puzzle: Exclusion NG 3) |  | 35 | 23.2 | 26.4 |  | 
8 | GUUUGAUUAGGAUAUACAUGAGGAUCACCCAUGUGUCCCAGUUUAGAAAUAGACAAAAGUAGAAGGGAUUAGAU [Starry 2] (Eterna round: R97, puzzle: Exclusion 3) |  | 37.8 |  | 45.8 |  | 
9 | UUUAAUUUUUUUUUUUUACAAGCUUUUUGCUCGUCUUAUACAUGAGGAUCACCCAUGUAGAUGGAGGAUAAAUUAUC [JMF 32] (puzzle: Sensor v3, turn-off variant 2) | 28.9 |  |  |  | 14.4 | 15.2
10 | CUUUUGUGAGGAUAUCAGUAGUAAAUAAAUAAUAUUACUACUGAGAAGGCACAUGAGGAUCACCCAUGUUCCUC [salish99_ex3_r3_083] (Eterna round: R96, puzzle: Exclusion 4) |  | 385 | 39 | 45.3 |  | 
11 | CCGGUUGGCGCAGGAUAUACAUGAGGAUCACCCAUGUUCAUGAGGAUCAUCCAUGAGUUUUUGUUGUAGAAGGGUGGCCCGGCC (Eterna round: R96, puzzle: Exclusion NG 2) |  | 117 | 60.8 | 98.4 |  | 
12 | GAAAAGGUAGGAUAUACGAAGAAAAAGGGUAGAAAAAAAACACAUGAGGAUCACCCAUGUAGAAGGACCAAAAG [salish99_ex2_r3_028] (puzzle: Exclusion 2) | 23.8 |  |  |  | 54.4 | 20.2
13 | CUGAACCCGGUAGGAUAUAUUGUGGGCAAGCAUGGAACGACAUGAGGAUCACCCAUGUAAUUUAGGUAGAAGGGCCAAAAGAUU [Excl-NG2-LRO09] (Eterna round: R96, puzzle: Exclusion NG 2) |  | 34.6 | 28.9 | 53.9 |  | 
14 | AUACCACGAGGAUAUCGUCUAUUUCACAUGAGGAUCACCCAUGUUAUCUUUGUUUCGUUUCGAGAAGGCGUGUUUU [JR_E5_Sub077] (puzzle: Exclusion 5) | 30.1 |  |  |  |  | 
15 | AGAUGGCGAGGAUAUACAUGAGGAUCACCCAUGUGAGAUAAAAUAGUGAGGAAGAAAAGUAGAAGGCGCUGUCA [Mat - Exclusion 3 - Mod of Salish D15] (puzzle: Exclusion 3) | 58.1 |  |  |  | 268 | 73
16 | GAGUGCUGAGGAUAUACAUGAGGAUCACCCAUGUGCUUCAGCUAGGAGACUAGCAUUGGUAGAAGGUAGUACUC [Mod of lroppy 4 - Jieux - Exclusion 3] (Eterna round: R97, puzzle: Exclusion 3) |  | 19.9 |  | 13.2 |  | 
17 | AAGGGUACUUUCGGAACGACAUGAGGAUCACCCAUGUAUACUGAGGAUAUCCACUACUAAGGACGGGAGAAGGCAGUGUAAUGU [Ex NG3 #78] (Eterna round: R96, puzzle: Exclusion NG 3) |  | 18.8 | 13.6 | 18.5 |  | 
18 | AUUGAUAGCACAGGAUAUUGAGAUUUGAAUUGACAAGAAGGGUGUACAUGAGGAUCACCCAUGUAAUGGGAGAAUGAUUGAUUA [JR_ExcNG1_Sub001] (Eterna round: R96, puzzle: Exclusion NG 1) |  | 1260 | 1040 | 1640 |  | 

Row | Sequence | apparent KD of MS2 coat protein [1] [nM] | apparent KD of MS2 coat protein (input ligand: FMN 200 uM) [nM] | apparent KD of MS2 coat protein [2] [nM] | apparent KD of MS2 coat protein (input ligand: none) [nM] | apparent KD of MS2 coat protein [3] [nM] | apparent KD of MS2 coat protein [4] [nM]
19 | AUAUCAAGCAAGGAUAUGCAAAUGGUUAUUUAUGCAGAAGGUGCAACAUGAGGAUCACCCAUGUUUCUGGGUUU [JR_E6_Sub049] (puzzle: Exclusion 6) | 48.2 |  |  |  |  | 
20 | AGGGCACAUGAGGAUCACCCAUGUGAGGAUAUCCCGGUACUAUCGAUGUAGUAAUCGUGGAGAAGGCACACGAC [EX1 C.21] (Eterna round: R97, puzzle: Exclusion 1) |  | 90.3 |  | 62.6 |  | 
21 | AGUCCAGACGGACCCUCUAACAUGAGGAUCACCCAUGUAGCGGAGGAUAUCCGAAUUUGGGCGACGGAGAAGGCCGUUGCAGGG [Edsosobi] (Eterna round: R96, puzzle: Exclusion NG 3) |  | 21.3 | 27 | 27.5 |  | 
22 | CUGGUCCGAGGAUAUAUGAUGUGAAACAUGAGGAUCACCCAUGUAAUAUUAUGGAUGUAAAUAGAAGGCGGACUAG [JL-ex5-3.08] (puzzle: Exclusion 5) | 33.9 |  |  |  | 37.8 | 74.2
23 | UCGGAUAGAGGAUAUACAUGAGGAUCACCCAUGUGGUCAAGCGGGUACGCCCAGCGAGGUAGAAGGCUAUCCGG [Eternabot (L1) Solution 16] (Eterna round: R97, puzzle: Exclusion 3) |  | 407 |  | 136 |  | 
24 | GUUUUCAGACGGAGAUCCUACAUGAGGAUCACCCAUGUCUCUCUUGUUUUUUGCUCGUCUUAUCCUCCUCUGUUCUC [Elimod 31 - Jieux - Sensor, turn-off variant 1] (Eterna round: R97, puzzle: Sensor, turn-off variant 1) |  | 467 |  | 520 |  | 
25 | ACACUGCUAGGAUAUGCAGCGGCAUCAGCCGAAAGUCCCUCACAUGAGGAUCACCCAUGUAGAAGGAGCAAGAC [Eternabot (Original) Solution 13] (Eterna round: R97, puzzle: Exclusion 2) |  | 26.9 |  | 26.6 |  | 
26 | CGUGUCUUUCACGUGAGUGGUGGGUGCAACAGGUGGGUUACAUGAGGAUCACCCAUGUCCUCACUUGCUCGUCUUUU [Grok-var2-04] (puzzle: Sensor v3, turn-off variant 2) | 109 |  |  |  | 36.1 | 37.2
27 | GCUGGUCGAGGAUAUACAUUCGUGCUUCGGCACGUAAGGUCACAUGAGGAUCACCCAUGUAGAAGGCGACCAGC [E2/7-A1] (Eterna round: R97, puzzle: Exclusion 2) |  | 258 |  | 42.2 |  | 
28 | AGAGUGCUGCGAGGAUAUACAUGAGGAUCACCCAUGUAUUAGUGUGAGGCUUUGCCUCACACAAUGUAGAAGGCGCAGUACUCA [Mat - Exclusion NG 2 - Mod of JL - D8] (Eterna round: R96, puzzle: Exclusion NG 2) |  | 6.8 | 11.1 | 12.4 |  | 
29 | CCUCGACAUGAGGAUCACCCAUGUCAGGAUAUUGUGUAUCGGGUUUUUUACCGAAAGGCGAGAAGGGAUGUGUG [LRO-Excl1-11] (puzzle: Exclusion 1) | 15 |  |  |  |  | 
30 | UAGAAUCGAGGAUAUACAUGAGGAUCACCCAUGUGUGGCCAUUUGGUGUGGUCGUCAGGUAGAAGGCGAUUACA [Exclusion 3 - Mod of Jieux's Gilly Gone Silly 23 v.5] (puzzle: Exclusion 3) | 141 |  |  |  |  | 
31 | AAGUACCGUCACGAUAGUGAUGGUACAACAAGCAUGUAAACAUGAGGAUCACCCAUGUCCUCAUAUGCUCGUCUUAU [Sensor 3 - 64] (puzzle: Sensor v3, turn-off variant 2) | 34.3 |  |  |  | 375 | 566
32 | UAAGAGUGAGGAUAUACGUCGCUGGUCCAGAUGGACGCAUGACAUGAGGAUCACCCAUGUAGAAGGCACAAAAC [Enxela Mod 3 - Jieux - Exclusion 2] (Eterna round: R97, puzzle: Exclusion 2) |  | 189 |  | 32.8 |  | 
33 | CUGGAUAGAGGAUAUUGUACUGCUGACAUGAGGAUCACCCAUGUAUGUUAACUCGGCCGUCGAGAAGGCUAACAAA [BotMod 14 - Jieux - Exclusion 5] (Eterna round: R97, puzzle: Exclusion 5) |  | 16.3 |  | 33.4 |  | 
34 | AGGUAACAUGAGGAUCACCCAUGUCAGGAUAUCAGUAAGAUUAGAAUAGAGUAGAGGAUGAGAAGGGACUAUAU [Excluse me! 19- Jieux - Exclusion 1] (puzzle: Exclusion 1) | 42.7 |  |  |  |  | 
35 | AAUUCACAUGAGGAUCACCCAUGUCAGGAUAUGGUUUCACGUGUUUCGGUGCGUGAGGCCAGAAGGGACAGCUA (puzzle: Exclusion 1) | 49.7 |  |  |  |  | 
